In US11939397B2, “ENTPD2 antibodies, combination therapies, and methods of using the antibodies and combination therapies” (Novartis AG, priority 2018, dated 2024):

How the values were obtained:
[1] = test system: B16LM3 tumor; assay: Syngeneic B16LM3 tumor model, survival; format: in vivo, C57BL/6 mice; settings: mAb13 15 mg/kg in combination with anti-PD-1 Ab 10 mg/kg i.p., days 1, 5, 8, 12, 15; relative to No Treatment, Isotype Control or anti-PD-1 Ab
Experimental: B16LM3 model was established in female C57BL/6 mice by subcutaneous injection of 0.5×10^6 cells into the right flank of each mouse. The day after implant mice were randomized into treatment groups (n=10 per group). Mice received treatments of either anti-mouse ENTPD2 mAb13 or a non-specific mIgG2a isotype control (clone MOPC-173, BioLegend, San Diego, CA) at a final dose 15 mg/kg on Day 1, 5, 8, 12, 15.
Anti-PD-1 Ab (clone RMP1-14 Bio X Cell, West Lebanon, NH) or non-specific rIgG2a isotype control (clone RTK2758, BioLegend, San Diego, CA) were delivered i.p. at a final dose of 10 mg/kg on days 1, 5, 8, 12, 15. All doses were adjusted to individual mouse body weights.

[2] = target: T1, mouse ENTPD2 (Mus musculus, UniProt O55026); assay: Mouse ENTPD2 NIH/3T3 cell-based functional assay
T1 construct: expressed in transfected cells
T1 sequence (O55026 1-495): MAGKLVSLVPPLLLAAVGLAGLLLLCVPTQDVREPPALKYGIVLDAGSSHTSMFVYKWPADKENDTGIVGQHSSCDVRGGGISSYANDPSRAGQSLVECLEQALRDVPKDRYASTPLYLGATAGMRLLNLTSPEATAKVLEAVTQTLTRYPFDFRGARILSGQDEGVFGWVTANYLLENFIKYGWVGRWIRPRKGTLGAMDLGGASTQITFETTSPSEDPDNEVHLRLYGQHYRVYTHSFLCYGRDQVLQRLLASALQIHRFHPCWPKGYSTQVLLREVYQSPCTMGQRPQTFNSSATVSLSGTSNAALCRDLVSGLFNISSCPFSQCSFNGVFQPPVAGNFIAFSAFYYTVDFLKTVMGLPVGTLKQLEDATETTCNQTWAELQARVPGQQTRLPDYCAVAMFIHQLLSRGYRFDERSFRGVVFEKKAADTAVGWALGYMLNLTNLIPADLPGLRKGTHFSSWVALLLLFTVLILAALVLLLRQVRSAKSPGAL
From the text: Biochemical and cell-based functional assays were developed in-house to understand functional impact of anti-ENTPD2 Abs against purified extracellular domain of ENTPD2 (residues 29-462), as well as against the fully intact protein in the context of the native cell-based conformation. ENTPD2 hydrolyzes ATP to ADP, which can subsequently be detected using the HTRF Transcreener ADP2 TR-FRET Red Assay (BellBrook Labs, Madison, WI) where ENTPD2-produced ADP would compete with the ADP Tracer for binding to the anti-ADP-Tb antibody. The resulting signal is inversely proportional to the concentration of ADP in the sample.
To establish cell-based functional assays, human/cyno/mouse ENTPD2-engineered NIH/3T3 cells or RKO (ATCC, Manassa VA) colorectal cancer cells with endogenous ENTPD2 expression were plated overnight at 150, 200 and 250 cells per well for NIH/3T3 mouse, cyno and human ENTPD2 lines, respectively, or 1000 cells per well for RKO in 384-well tissue culture plate, in 30 μl per well (Perkin Elmer, Waltham, MA). […] ADP production was detected with the Transcreener ADP2 TR-FRET Red Assay (BellBrook Labs, Madison, WI) with a final concentration of 4 nM ADP2 antibody and 13.4 nM of ADP Tracer in wells (4× solution was prepared and 5 μL of “Detection Reagent Mix” was added to the quenched conditioned media). […]

B1: mAb13: anti-mouse ENTPD2 monoclonal antibody, VH SEQ ID NO: 191, VL SEQ ID NO: 202 (antibody, V domains shown)
VH: QVQLVQSGAELKQPGQSVKISCKASGYTFTHYGMNWVKQAPGQGLKWMGWINTDTGNPTYADDFKGRFVFSLDTSVSTAYLQISNLKNEDTATYYCVRYGTLYSGYGFFFDSWGQGTLVTVSS
VL: DIMMTQSPSSLSVSAGEKATITCKSSQSLFNSNTNKNYLNWYLQKPGQSPKLLFYYASTRHTGVPDRFIGSGSGTDFTLTITSVQDEDLADYYCQQWYSYPWTFGPGTKLEIK
[1]
  mouse survival: significantly extended mouse survival
[2]; 100 nM antibody, mouse ENTPD2 NIH/3T3 cells
  % Inhibition at 100 nM (±Std Err): 44 ± 7.3%
[2]; NIH3T3-mouse ENTPD2 engineered cell line
  maximum target inhibition (mouse ENTPD2 inhibition): 44%
